# Experimental data from patent publication US20250361298A1 (CARTOGRAPHY BIOSCIENCES, published 2025).
# Starred links: 1 amine or outer side, 2 acyl side, 3 side chain; linkers in the order of their positions; H or OH if unused. Positions of bridges follow the written chain, without caps; N, C: chain ends. Primed or numbered codes have the meaning given here. PEG2′ = PEG2 spacer at the C-terminus, followed by 3-mercaptopropionate; CH2 = C([*:1])[*:2]
# T1: LY6G6D cyclic peptide Ac-RDC*YLGDLC*NS-PEG2-3-mercaptopropionate (bridge 3-9 via CH2; not fully specified; printed as Ac-RDC*YLGDLC*NS-PEG2-3-mercaptopropionate)
# T1 construct: Represents the most membrane-proximal stretch of LY6G6D; also called octomer cyclic peptide
# T1 peptide: Ac-RDCYLGDLCNS-{PEG2′-3‑mercaptopropionate}
# T2: Human LY6G6D ectodomain fused to mouse IgG2A Fc (monovalent display, knob-in-hole) (human, biotinylated for BLI capture (site not stated))
# T2 chain: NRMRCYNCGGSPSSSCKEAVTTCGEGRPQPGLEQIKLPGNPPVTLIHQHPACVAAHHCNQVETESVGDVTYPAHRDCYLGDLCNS
# Molecular target: T1, LY6G6D cyclic peptide …
# Test: flow binding assay on cyclic-peptide beads
row,binding result,Binder
1,binds,"CB21-471 (antibody, V domains shown, Human Fc formats; monovalent antibody in BLI) VH: EVQLVESGGGVVQPGRSLRLSCAASGFTFSSYGMHWVRQVPGKGLEWVAVIWYDGSNKDYVDSVKGRFTISRDNSKNTLYLQMNSLRAEDTAVYYCARPGEGDYWGQGTLVTVSS VL: DIQMTQSPSSLSASVGDRVTITCRASQGIRNDFGWYQQKPGKAPKRLIYGASSLQSGVPSRFSGSGSGTEFTLTISSLQPEDFATYYCLQQNSYPWTFGQGTKVEIK"
2,binds,"CB21-477 (antibody, V domains shown, Human Fc formats; monovalent antibody in BLI) VH: EVQLVESGGGVVQPGRSLRLSCAASGFTFSSYGMHWVRQAPGKGLEWVAVIWYDGSNKDYADSVKGRFTISRDNSKNTLYLQMNSLRAEDTAVYYCARPGEGDYWGQGTLVTVSS VL: DIQMTQSPSSLSASVGDRVTITCRASQGIRNDLGWYQQKPGRAPKRLIYAASSLQSGVPSRFSGSGSGTEFTLTISSLQPEDFATYYCLQQNSYPWTFGQGTKVEIK"
3,binds,"CB21-499 (antibody, V domains shown, Human Fc formats; monovalent antibody in BLI) VH: EVQLVESGGGVVQPGRSLRLSCAASGFTFSSYGMHWVRQAPGKGLEWVAVIWYDGSNKDYADSVKGRFTISRDNSKNTLYLQMNSLRAEDTAIYYCARPGEGDYWGQGTLVTVSS VL: DIQMTQSPSSLSASVGDRVTITCRASQGVRNDFGWFQQKPGKAPKRLIYGASSLQSGVPSRFSGSGSGTEFTLTISSLQPEDFATYYCLQQNSYPWTFGQGTKLEIK"
4,binds,"CB21-469 (antibody, V domains shown, Cloned into knob/hole human Fc and light chain vectors; IgG and bispecific TCE formats were made; BLI used a monovalent antibody format) VH: EVQLVESGGGLVQPGGSLRLSCAASGFTFSSYAMNWVRQAPGKGLEWVSGISGNGGRIYYADSVKGRFTISRDNSKNTLYLQMNSLRVEDTAVYYCAKDLDVWGKGTTVTVSS VL: DVVMTQTPLSSPVTLGQSASISCRSSQSLVHSDGNTYLNWLHQRPGQPPRLLIYKISNRFSGVPDRFSGSGAGTDFTLKISRVEAEDVGVYYCMQATQFPLTFGGGTKLEIK"
5,binds,"CB21-513 (antibody, V domains shown, Human Fc formats; monovalent antibody in BLI) VH: EVQLVDSGGGLVEPGGSLRLSCAASGFTFSSYAMTWVRQAPGKGLEWVSGISGSGGVTDYADSVKGRFTISRDNSKNTLYMQMNSLRAEDTAVYYCAKDLGVWGKGTTVTVSS VL: not shown"
6,binds,"CB21-498 (antibody, V domains shown, Human Fc formats; monovalent antibody in BLI) VH: EMQLVESGGGLVQPGGSLRLSCAASGFTFSSYAMNWVRQAPGKGLECVSGISGNGGRIYYAESVKGRFTISRDNSKSTFYLQMNSLRAEDTAVYYCAKDLDVWGKGTTVTVSS VL: not shown"
7,binds,"CB21-500 (antibody, V domains shown, Human Fc formats; monovalent antibody in BLI) VH: EVQLVESGGGLVQPGGSLRLSCAASGFTFSSYAMNWVRQVPGKGLEGVSGMSGSGGRIYYADSVKGRFTMSRDNSKNMVYLQMNSLRAEDTALYYCAKDLDVWGKGTTVTVSS VL: DVVMTQTPLSSPVTLGQPASISCRSSQNLVHSDGNTYLNWLQQRPGQPPRLLIYKISNRFSGVPDRFSGSGAGTDFTLKISRVEAEDVGVYYCMQATQFPLTFGGGTKLEIK"
8,binds,"CB21-512 (antibody, V domains shown, Human Fc formats; monovalent antibody in BLI) VH: EVQLVESGGGVVQPGRSLRLSCAASGFTFSSYGMHWVRQAPGKGLEWVAVLWYDGINKNYADSVKGRFAISRDNSKNTLYLQMNSLRVEDTAVYFCVRVQGDYWGQGTLVTVSS VL: DIQMTQSPSSLSASVGDRVTITCRASQGIRNDLTWYQQKPGKAPKRLIYDTSSLQSGVPSRFSGSRSGTEFTLTISSLQPEDFASYFCLQHNIYPFTFGQGTKLEIK"
9,binds,"CB21-470 (antibody, V domains shown, Human Fc formats; monovalent antibody in BLI) VH: EVQLVESGGGVVQPGRSLRLSCAASGFTFNSYGMHWVRQAPGKGLEWVAVLWYDGINKNYADSVKGRFAISRDNSKNTLYLQMNSLRVEDTAVYYCVRVQGDYWGQGTLVTVSS VL: DIQMTQSPSSLSASVGDRVTITCRASQGIRNDLTWYQQKPGKAPKRLIYDTSSLQSGVPSRFSGSRSGTEFTLTISSLQPEDFASYFCLQHNSYPFTFGQGTKLEIK"
10,binds,"CB21-502 (antibody, V domains shown, Human Fc formats; monovalent antibody in BLI) VH: EVQLVESGGGVVQPGRSLRLSCAASGFTFSSYGMHWVRQAPGKGLEWVAVLWYDGINKNYVDSVKGRFAISRDNSKNTLYLQMNSLRVEDTAVYFCVRVQGDYWGQGTLVTVSS VL: DIQMTQSPSSLSASVGDRVTITCRASQGIRNDLTWYQQKPGKAPKRLIYDTSSLQSGVPSRFSGSGSGTDFTLTISSLQPEDFASYFCLQHNIYPFTFGQGTKLEIK"
11,binds,"CB21-522 (antibody, V domains shown, Human Fc formats; monovalent antibody in BLI) VH: EVQLVQSGAEVKKPGASVKVSCKASGYTFTGYFIHWVRQAPGQGLEWMGWINPNSGGTYYAQEFQGRVTMTRDTSISTAYMELIRLRSDDSAVYYCARDISLVGDYWGQGTLVTVSS VL: DVVMTQSPLSLPVTLGQPASISCRSSQSLVYSDGNTYLNWFQQRPGQSPRRLIYKVSNRDSGVPERFSGIGSGTDFTLEISRVEAEDVGVYYCMQGSHWPLTFGGGTKVEIK"

# Molecular target: T2, Human LY6G6D ectodomain fused to mouse …
# Test: BLI, chain shuffle round 1; antigen not named in the table (LY6G6D ectodomain as in Example 3)
Kd [nM],koff [s⁻¹],kon [M⁻¹ s⁻¹],Binder
0.91,0.000105,116000,"CP1475 (heavy chain from CB21-498, light chain from CB21-513) (antibody, V domains shown, Chain-shuffled antibody) VH: EMQLVESGGGLVQPGGSLRLSCAASGFTFSSYAMNWVRQAPGKGLECVSGISGNGGRIYYAESVKGRFTISRDNSKSTFYLQMNSLRAEDTAVYYCAKDLDVWGKGTTVTVSS VL: not shown"
0.554,8.4e-05,152000,"CP1473 (heavy chain from CB21-498, light chain from CB21-469) (antibody, V domains shown, Chain-shuffled antibody) VH: EMQLVESGGGLVQPGGSLRLSCAASGFTFSSYAMNWVRQAPGKGLECVSGISGNGGRIYYAESVKGRFTISRDNSKSTFYLQMNSLRAEDTAVYYCAKDLDVWGKGTTVTVSS VL: DVVMTQTPLSSPVTLGQSASISCRSSQSLVHSDGNTYLNWLHQRPGQPPRLLIYKISNRFSGVPDRFSGSGAGTDFTLKISRVEAEDVGVYYCMQATQFPLTFGGGTKLEIK"
16.5,0.00053,32200,"CP1479 (heavy chain from CB21-513, light chain from CB21-469) (antibody, V domains shown, Chain-shuffled antibody) VH: EVQLVDSGGGLVEPGGSLRLSCAASGFTFSSYAMTWVRQAPGKGLEWVSGISGSGGVTDYADSVKGRFTISRDNSKNTLYMQMNSLRAEDTAVYYCAKDLGVWGKGTTVTVSS VL: DVVMTQTPLSSPVTLGQSASISCRSSQSLVHSDGNTYLNWLHQRPGQPPRLLIYKISNRFSGVPDRFSGSGAGTDFTLKISRVEAEDVGVYYCMQATQFPLTFGGGTKLEIK"
0.699,9.87e-05,141000,"CP1474 (heavy chain from CB21-498, light chain from CB21-500) (antibody, V domains shown, Chain-shuffled antibody) VH: EMQLVESGGGLVQPGGSLRLSCAASGFTFSSYAMNWVRQAPGKGLECVSGISGNGGRIYYAESVKGRFTISRDNSKSTFYLQMNSLRAEDTAVYYCAKDLDVWGKGTTVTVSS VL: DVVMTQTPLSSPVTLGQPASISCRSSQNLVHSDGNTYLNWLQQRPGQPPRLLIYKISNRFSGVPDRFSGSGAGTDFTLKISRVEAEDVGVYYCMQATQFPLTFGGGTKLEIK"
17.6,0.000264,15000,"CP1481 (heavy chain from CB21-513, light chain from CB21-500) (antibody, V domains shown, Chain-shuffled antibody) VH: EVQLVDSGGGLVEPGGSLRLSCAASGFTFSSYAMTWVRQAPGKGLEWVSGISGSGGVTDYADSVKGRFTISRDNSKNTLYMQMNSLRAEDTAVYYCAKDLGVWGKGTTVTVSS VL: DVVMTQTPLSSPVTLGQPASISCRSSQNLVHSDGNTYLNWLQQRPGQPPRLLIYKISNRFSGVPDRFSGSGAGTDFTLKISRVEAEDVGVYYCMQATQFPLTFGGGTKLEIK"
12.7,0.0017,134000,"CP1471 (heavy chain from CB21-469, light chain from CB21-500) (antibody, V domains shown, Chain-shuffled antibody) VH: EVQLVESGGGLVQPGGSLRLSCAASGFTFSSYAMNWVRQAPGKGLEWVSGISGNGGRIYYADSVKGRFTISRDNSKNTLYLQMNSLRVEDTAVYYCAKDLDVWGKGTTVTVSS VL: DVVMTQTPLSSPVTLGQPASISCRSSQNLVHSDGNTYLNWLQQRPGQPPRLLIYKISNRFSGVPDRFSGSGAGTDFTLKISRVEAEDVGVYYCMQATQFPLTFGGGTKLEIK"
5.35,0.000705,132000,"CP1478 (heavy chain from CB21-500, light chain from CB21-513) (antibody, V domains shown, Chain-shuffled antibody) VH: EVQLVESGGGLVQPGGSLRLSCAASGFTFSSYAMNWVRQVPGKGLEGVSGMSGSGGRIYYADSVKGRFTMSRDNSKNMVYLQMNSLRAEDTALYYCAKDLDVWGKGTTVTVSS VL: not shown"
3.15,0.000413,131000,"CP1476 (heavy chain from CB21-500, light chain from CB21-469) (antibody, V domains shown, Chain-shuffled antibody) VH: EVQLVESGGGLVQPGGSLRLSCAASGFTFSSYAMNWVRQVPGKGLEGVSGMSGSGGRIYYADSVKGRFTMSRDNSKNMVYLQMNSLRAEDTALYYCAKDLDVWGKGTTVTVSS VL: DVVMTQTPLSSPVTLGQSASISCRSSQSLVHSDGNTYLNWLHQRPGQPPRLLIYKISNRFSGVPDRFSGSGAGTDFTLKISRVEAEDVGVYYCMQATQFPLTFGGGTKLEIK"
